Source: patent publication US20260070987A1

Molecular target: equine FcRn (large alpha subunit p51) in complex with equine beta-2-microglobulin (equine) (UniProt F6XZ61)
Test: SPR (Biacore), pH 6

Chain of UniProt F6XZ61 (F6XZ61 entry or part of it, one chain of several): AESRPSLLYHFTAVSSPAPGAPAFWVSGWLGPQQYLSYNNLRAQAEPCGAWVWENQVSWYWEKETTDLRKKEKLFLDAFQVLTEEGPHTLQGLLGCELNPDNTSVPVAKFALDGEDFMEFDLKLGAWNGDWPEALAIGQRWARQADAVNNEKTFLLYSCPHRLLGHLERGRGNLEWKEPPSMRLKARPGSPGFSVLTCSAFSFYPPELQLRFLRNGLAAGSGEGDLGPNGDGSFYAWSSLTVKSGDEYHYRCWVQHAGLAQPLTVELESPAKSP

Binder	Kd [nM]
equine IgG7 D312P mutant (antibody, part only; not given: variable domains, not shown: another chain or arm of the molecule) constant: ASTTAPKVFPLASHSAATSGSTVALGCLVSSYFPEPVTVSWNSGALTSGVHTFPSVLQSSGLYSLSSMVTVPASSLKSQTYICNVAHPASSTKVDKKIVIKECGGCPTCPECLSVGPSVFIFPPKPKDVLMISRTPTVTCVVVDVGHDFPDVQFNWYVDGVETHTATTEPKQEQNNSTYRVVSILAIQHKPWLSGKEFKCKVNNQALPAPVQKTISKPTGQPREPQVYVLAPHRDELSKNKVSVTCLVKDFYPTDIDIEWKSNGQPEPETKYSTTPAQLDSDGSYFLYSKLTVETNRWQQGTTFTCAVMHEALHNHYTEKSVSKSPGK	8
equine IgG7 Y436A mutant (antibody, part only; not given: Variable domains, not shown: another chain or arm of the molecule) constant: ASTTAPKVFPLASHSAATSGSTVALGCLVSSYFPEPVTVSWNSGALTSGVHTFPSVLQSSGLYSLSSMVTVPASSLKSQTYICNVAHPASSTKVDKKIVIKECGGCPTCPECLSVGPSVFIFPPKPKDVLMISRTPTVTCVVVDVGHDFPDVQFNWYVDGVETHTATTEPKQEQNNSTYRVVSILAIQHKDWLSGKEFKCKVNNQALPAPVQKTISKPTGQPREPQVYVLAPHRDELSKNKVSVTCLVKDFYPTDIDIEWKSNGQPEPETKYSTTPAQLDSDGSYFLYSKLTVETNRWQQGTTFTCAVMHEALHNHATEKSVSKSPGK	13.3
equine IgG7 D312R mutant (antibody, part only; not given: Variable domains, not shown: another chain or arm of the molecule) constant: ASTTAPKVFPLASHSAATSGSTVALGCLVSSYFPEPVTVSWNSGALTSGVHTFPSVLQSSGLYSLSSMVTVPASSLKSQTYICNVAHPASSTKVDKKIVIKECGGCPTCPECLSVGPSVFIFPPKPKDVLMISRTPTVTCVVVDVGHDFPDVQFNWYVDGVETHTATTEPKQEQNNSTYRVVSILAIQHKRWLSGKEFKCKVNNQALPAPVQKTISKPTGQPREPQVYVLAPHRDELSKNKVSVTCLVKDFYPTDIDIEWKSNGQPEPETKYSTTPAQLDSDGSYFLYSKLTVETNRWQQGTTFTCAVMHEALHNHYTEKSVSKSPGK	9
equine IgG7 Y436F mutant (antibody, part only; not given: variable domains, not shown: another chain or arm of the molecule) constant: ASTTAPKVFPLASHSAATSGSTVALGCLVSSYFPEPVTVSWNSGALTSGVHTFPSVLQSSGLYSLSSMVTVPASSLKSQTYICNVAHPASSTKVDKKIVIKECGGCPTCPECLSVGPSVFIFPPKPKDVLMISRTPTVTCVVVDVGHDFPDVQFNWYVDGVETHTATTEPKQEQNNSTYRVVSILAIQHKDWLSGKEFKCKVNNQALPAPVQKTISKPTGQPREPQVYVLAPHRDELSKNKVSVTCLVKDFYPTDIDIEWKSNGQPEPETKYSTTPAQLDSDGSYFLYSKLTVETNRWQQGTTFTCAVMHEALHNHFTEKSVSKSPGK	9.3
equine IgG7 D312V mutant (antibody, part only; not given: variable domains, not shown: another chain or arm of the molecule) constant: ASTTAPKVFPLASHSAATSGSTVALGCLVSSYFPEPVTVSWNSGALTSGVHTFPSVLQSSGLYSLSSMVTVPASSLKSQTYICNVAHPASSTKVDKKIVIKECGGCPTCPECLSVGPSVFIFPPKPKDVLMISRTPTVTCVVVDVGHDFPDVQFNWYVDGVETHTATTEPKQEQNNSTYRVVSILAIQHKVWLSGKEFKCKVNNQALPAPVQKTISKPTGQPREPQVYVLAPHRDELSKNKVSVTCLVKDFYPTDIDIEWKSNGQPEPETKYSTTPAQLDSDGSYFLYSKLTVETNRWQQGTTFTCAVMHEALHNHYTEKSVSKSPGK	11.3
equine IgG7 D312Y mutant (antibody, part only; not given: variable domains, not shown: another chain or arm of the molecule) constant: ASTTAPKVFPLASHSAATSGSTVALGCLVSSYFPEPVTVSWNSGALTSGVHTFPSVLQSSGLYSLSSMVTVPASSLKSQTYICNVAHPASSTKVDKKIVIKECGGCPTCPECLSVGPSVFIFPPKPKDVLMISRTPTVTCVVVDVGHDFPDVQFNWYVDGVETHTATTEPKQEQNNSTYRVVSILAIQHKYWLSGKEFKCKVNNQALPAPVQKTISKPTGQPREPQVYVLAPHRDELSKNKVSVTCLVKDFYPTDIDIEWKSNGQPEPETKYSTTPAQLDSDGSYFLYSKLTVETNRWQQGTTFTCAVMHEALHNHYTEKSVSKSPGK	9.4
equine IgG7 Y436G mutant (antibody, part only; not given: variable domains, not shown: another chain or arm of the molecule) constant: ASTTAPKVFPLASHSAATSGSTVALGCLVSSYFPEPVTVSWNSGALTSGVHTFPSVLQSSGLYSLSSMVTVPASSLKSQTYICNVAHPASSTKVDKKIVIKECGGCPTCPECLSVGPSVFIFPPKPKDVLMISRTPTVTCVVVDVGHDFPDVQFNWYVDGVETHTATTEPKQEQNNSTYRVVSILAIQHKDWLSGKEFKCKVNNQALPAPVQKTISKPTGQPREPQVYVLAPHRDELSKNKVSVTCLVKDFYPTDIDIEWKSNGQPEPETKYSTTPAQLDSDGSYFLYSKLTVETNRWQQGTTFTCAVMHEALHNHGTEKSVSKSPGK	51.7
equine IgG7 Y436D mutant (antibody, part only; not given: Variable domains, not shown: another chain or arm of the molecule) constant: ASTTAPKVFPLASHSAATSGSTVALGCLVSSYFPEPVTVSWNSGALTSGVHTFPSVLQSSGLYSLSSMVTVPASSLKSQTYICNVAHPASSTKVDKKIVIKECGGCPTCPECLSVGPSVFIFPPKPKDVLMISRTPTVTCVVVDVGHDFPDVQFNWYVDGVETHTATTEPKQEQNNSTYRVVSILAIQHKDWLSGKEFKCKVNNQALPAPVQKTISKPTGQPREPQVYVLAPHRDELSKNKVSVTCLVKDFYPTDIDIEWKSNGQPEPETKYSTTPAQLDSDGSYFLYSKLTVETNRWQQGTTFTCAVMHEALHNHDTEKSVSKSPGK	11.6
equine IgG7 D312T mutant (antibody, part only; not given: variable domains, not shown: another chain or arm of the molecule) constant: ASTTAPKVFPLASHSAATSGSTVALGCLVSSYFPEPVTVSWNSGALTSGVHTFPSVLQSSGLYSLSSMVTVPASSLKSQTYICNVAHPASSTKVDKKIVIKECGGCPTCPECLSVGPSVFIFPPKPKDVLMISRTPTVTCVVVDVGHDFPDVQFNWYVDGVETHTATTEPKQEQNNSTYRVVSILAIQHKTWLSGKEFKCKVNNQALPAPVQKTISKPTGQPREPQVYVLAPHRDELSKNKVSVTCLVKDFYPTDIDIEWKSNGQPEPETKYSTTPAQLDSDGSYFLYSKLTVETNRWQQGTTFTCAVMHEALHNHYTEKSVSKSPGK	9.9
equine IgG7 D312W mutant (antibody, part only; not given: variable domains, not shown: another chain or arm of the molecule) constant: ASTTAPKVFPLASHSAATSGSTVALGCLVSSYFPEPVTVSWNSGALTSGVHTFPSVLQSSGLYSLSSMVTVPASSLKSQTYICNVAHPASSTKVDKKIVIKECGGCPTCPECLSVGPSVFIFPPKPKDVLMISRTPTVTCVVVDVGHDFPDVQFNWYVDGVETHTATTEPKQEQNNSTYRVVSILAIQHKWWLSGKEFKCKVNNQALPAPVQKTISKPTGQPREPQVYVLAPHRDELSKNKVSVTCLVKDFYPTDIDIEWKSNGQPEPETKYSTTPAQLDSDGSYFLYSKLTVETNRWQQGTTFTCAVMHEALHNHYTEKSVSKSPGK	13.2

Results, then the binder that gave them:

Kd [nM]	Binder
9.6	equine IgG7 D312S mutant (antibody, part only; not given: variable domains, not shown: another chain or arm of the molecule) constant: ASTTAPKVFPLASHSAATSGSTVALGCLVSSYFPEPVTVSWNSGALTSGVHTFPSVLQSSGLYSLSSMVTVPASSLKSQTYICNVAHPASSTKVDKKIVIKECGGCPTCPECLSVGPSVFIFPPKPKDVLMISRTPTVTCVVVDVGHDFPDVQFNWYVDGVETHTATTEPKQEQNNSTYRVVSILAIQHKSWLSGKEFKCKVNNQALPAPVQKTISKPTGQPREPQVYVLAPHRDELSKNKVSVTCLVKDFYPTDIDIEWKSNGQPEPETKYSTTPAQLDSDGSYFLYSKLTVETNRWQQGTTFTCAVMHEALHNHYTEKSVSKSPGK
74	equine IgG7 Y436K mutant (antibody, part only; not given: variable domains, not shown: another chain or arm of the molecule) constant: ASTTAPKVFPLASHSAATSGSTVALGCLVSSYFPEPVTVSWNSGALTSGVHTFPSVLQSSGLYSLSSMVTVPASSLKSQTYICNVAHPASSTKVDKKIVIKECGGCPTCPECLSVGPSVFIFPPKPKDVLMISRTPTVTCVVVDVGHDFPDVQFNWYVDGVETHTATTEPKQEQNNSTYRVVSILAIQHKDWLSGKEFKCKVNNQALPAPVQKTISKPTGQPREPQVYVLAPHRDELSKNKVSVTCLVKDFYPTDIDIEWKSNGQPEPETKYSTTPAQLDSDGSYFLYSKLTVETNRWQQGTTFTCAVMHEALHNHKTEKSVSKSPGK
13.4	equine IgG7 Y436E mutant (antibody, part only; not given: variable domains, not shown: another chain or arm of the molecule) constant: ASTTAPKVFPLASHSAATSGSTVALGCLVSSYFPEPVTVSWNSGALTSGVHTFPSVLQSSGLYSLSSMVTVPASSLKSQTYICNVAHPASSTKVDKKIVIKECGGCPTCPECLSVGPSVFIFPPKPKDVLMISRTPTVTCVVVDVGHDFPDVQFNWYVDGVETHTATTEPKQEQNNSTYRVVSILAIQHKDWLSGKEFKCKVNNQALPAPVQKTISKPTGQPREPQVYVLAPHRDELSKNKVSVTCLVKDFYPTDIDIEWKSNGQPEPETKYSTTPAQLDSDGSYFLYSKLTVETNRWQQGTTFTCAVMHEALHNHETEKSVSKSPGK
13.6	equine IgG7 D312Q mutant (antibody, part only; not given: variable domains, not shown: another chain or arm of the molecule) constant: ASTTAPKVFPLASHSAATSGSTVALGCLVSSYFPEPVTVSWNSGALTSGVHTFPSVLQSSGLYSLSSMVTVPASSLKSQTYICNVAHPASSTKVDKKIVIKECGGCPTCPECLSVGPSVFIFPPKPKDVLMISRTPTVTCVVVDVGHDFPDVQFNWYVDGVETHTATTEPKQEQNNSTYRVVSILAIQHKQWLSGKEFKCKVNNQALPAPVQKTISKPTGQPREPQVYVLAPHRDELSKNKVSVTCLVKDFYPTDIDIEWKSNGQPEPETKYSTTPAQLDSDGSYFLYSKLTVETNRWQQGTTFTCAVMHEALHNHYTEKSVSKSPGK
12.5	equine IgG7 Y436C mutant (antibody, part only; not given: variable domains, not shown: another chain or arm of the molecule) constant: ASTTAPKVFPLASHSAATSGSTVALGCLVSSYFPEPVTVSWNSGALTSGVHTFPSVLQSSGLYSLSSMVTVPASSLKSQTYICNVAHPASSTKVDKKIVIKECGGCPTCPECLSVGPSVFIFPPKPKDVLMISRTPTVTCVVVDVGHDFPDVQFNWYVDGVETHTATTEPKQEQNNSTYRVVSILAIQHKDWLSGKEFKCKVNNQALPAPVQKTISKPTGQPREPQVYVLAPHRDELSKNKVSVTCLVKDFYPTDIDIEWKSNGQPEPETKYSTTPAQLDSDGSYFLYSKLTVETNRWQQGTTFTCAVMHEALHNHCTEKSVSKSPGK
25.1	equine IgG7 Y436I mutant (antibody, part only; not given: Variable domains, not shown: another chain or arm of the molecule) constant: ASTTAPKVFPLASHSAATSGSTVALGCLVSSYFPEPVTVSWNSGALTSGVHTFPSVLQSSGLYSLSSMVTVPASSLKSQTYICNVAHPASSTKVDKKIVIKECGGCPTCPECLSVGPSVFIFPPKPKDVLMISRTPTVTCVVVDVGHDFPDVQFNWYVDGVETHTATTEPKQEQNNSTYRVVSILAIQHKDWLSGKEFKCKVNNQALPAPVQKTISKPTGQPREPQVYVLAPHRDELSKNKVSVTCLVKDFYPTDIDIEWKSNGQPEPETKYSTTPAQLDSDGSYFLYSKLTVETNRWQQGTTFTCAVMHEALHNHITEKSVSKSPGK
